Source: US20250243286A1 (SIXPEAKS BIO, published 2025)

T1: human ActRIIB (human, UniProt Q13705 19-137, limits assumed)
T1 construct: antigen in MSD-SET; also called ACVR2B; ActR2B
T1 sequence: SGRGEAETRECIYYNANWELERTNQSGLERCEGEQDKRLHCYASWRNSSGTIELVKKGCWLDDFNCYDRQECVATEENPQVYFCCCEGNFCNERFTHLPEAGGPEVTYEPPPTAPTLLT


Each binder was assayed against ActRIIA and ActRIIB (on TGFB/SMAD SBE Reporter HEK293 cells) (human) (assay: cell-based or functional assay).
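For Kd in this document: immunoglobulin held at a fixed level and mixed with serially diluted antigen overnight at 4 °C to equilibrium, then unbound antibody captured on antigen-coated plates and read by electrochemiluminescence.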

Row | IC50, Activin SMAD RGA | IC50, Myostatin SMAD RGA | IC90, Activin SMAD RGA | IC90, Myostatin SMAD RGA | Binder
1 | 1.83 nM | 1.42 nM | 6.72 nM | 13.4 nM | Antibody Mauldascha (antibody, V domains shown) VH: QVQLVQSGAEVKKPGSSVKVSCKASGYTFTSSYINWVRQAPGQGLEWMGTINAVSGSTSYAQKFQGRVTITADESTSTAYMELSSLRSEDTAVYYCARGGWFDYWGQGTLVTVSS VL: QSALTQPRSVSGSPGQSVTISCTGTSSDVGSYNYVNWYQQHPGKAPKLMIYGVSKRESGVPDRFSGSKSGNTASLTISGLQAEDEADYYCGTFAGGKYYGVFGGGTKLTVL
2 | 0.299 nM | 2.84 nM | 4.92 nM | 48.4 nM | Antibody Peitscheschdegga (antibody, V domains shown) VH: QVQLVQSGAEVKKPGSSVKVSCKASGYKFTSSYINWVRQAPGQGLEWMGTINAVSGSTSYAQKFQGRVTITADTSTSTAYMELSSLRSEDTAVYYCARGGWFDYWGQGTLVTVSS VL: QSALTQPRSVSGSPGQSVTISCTGTSSDVGSKNYVNWYQQHPGKAPKLMIHGVSKRESGVPDRFSGSKSGNTASLTISGLQAEDEADYYCGTFAGGKYYGVFGGGTKLTVL
3 | 0.338 nM | 0.473 nM | 4.74 nM | 18.2 nM | Antibody Seela (antibody, V domains shown) VH: QVQLVQSGAEVKKPGSSVKVSCKASGYKFTSSYINWVRQAPGQGLEWMGTINAVSGSTSYAQKFQGRVTITADTSTSTAYMELSSLRSEDTAVYYCARGGWFDYWGQGTLVTVSS VL: QSALTQPRSVSGSPGQSVTISCTGTSSDVGSKNYVNWYQQHPGKAPKHMIYGVSKRESGVPDRFSGSKSGNTASLTISGLQAEDEADYYCGTFAGGKYYGVFGGGTKLTVL
4 |  | 0.0497 nM |  | 10400 nM | Antibody Krapfa (antibody, V domains shown) VH: QVQLVQSGAEVKKPGSSVKVSCKASGHKFTSSYINWVRQAPGQGLEWMGTINAVSGSTSYAQKFQGRVTITADTSTSTAYMELSSLRSEDTAVYYCARGGWFDYWGQGTLVTVSS VL: QSALTQPRSVSGSPGQSVTISCTGTSSDVGSKNYVNWYQQHPGKAPKLMIYGVSKRESGVPDRFSGSKSGNTASLTISGLQAEDEADYYCGTFAGGKYYGVFGGGTKLTVL

More lines, now with the values behind:

Row | Binder | IC50, Activin SMAD RGA | IC50, Myostatin SMAD RGA | IC90, Activin SMAD RGA | IC90, Myostatin SMAD RGA
5 | Antibody Schnitzbrot (antibody, V domains shown) VH: QVQLVQSGAEVKKPGSSVKVSCKASGYKFTSSYINWVRQAPGQGLEWMGTINAVSGSTSYAQKFQGRVTITADTSTSTAYMELSSLRSEDTAVYYCARGGWFDYWGQGTLVTVSS VL: QSALTQPRSVSGSPGQSVTISCTGTSSDVGSYNYVNWYQQHPGKAPKLMIYGVSKRDSGVPDRFSGSKSGNTASLTISGLQAEDEADYYCGTFAGGKYYGVFGGGTKLTVL | 0.312 nM | 0.624 nM | 2.52 nM | 19.1 nM
6 | Antibody Hegemark (antibody, V domains shown) VH: QVQLVQSGAEVKKPGSSVKVSCKASGYKFTSSYINWVRQAPGQGLEWMGTINAVSGSTSYAQKFQGRVTITADTSTSTAYMELSSLRSEDTAVYYCARGGWFDYWGQGTLVTVSS VL: QSALTQPRSVSGSPGQSVTISCTGTSSDVGSKNYVNWYQQHPGKAPKLMIYGVSKRHSGVPDRFSGSKSGNTASLTISGLQAEDEADYYCGTFAGGKYYGVFGGGTKLTVL | 0.304 nM | 0.516 nM | 4.37 nM | 23.4 nM
7 | Antibody Wiebela (antibody, V domains shown) VH: QVQLVQSGAEVKKPGSSVKVSCKASGYKFTSSYINWVRQAPGQGLEWMGTINAVSGSTSYAQKFQGRVTITADTSTSTAYMELSSLRSEDTAVYYCARGGWFDYWGQGTLVTVSS VL: QSALTQPRSVSGSPGQSVTISCTGTSSDVGSKNYVNWYQQHPGKAPKLMIYGVSKRESGVPDRFSGSKSGNTASLTISGLQAEDEADYYCGTFAGGKYYGVFGGGTKLTVL | 0.253 nM | 0.25 nM | 3.96 nM | 14.8 nM
8 | Antibody Metzelsupp (antibody, V domains shown) VH: QVQLVQSGAEVKKPGSSVKVSCKASGYTFTSSYINWVRQAPGQGLEWMGTINAVSGSTSYAQKFQGRVTITADTSTSTAYMELSSLRSEDTAVYYCARGGWFDYWGQGTLVTVSS VL: QSALTQPRSVSGSPGQSVTISCTGTSSDVGSFNYVNWYQQHPGKAPKLMIRGVSKRESGVPDRFSGSKSGNTASLTISGLQAEDEADYYCGTFAGGAYYGVFGGGTKLTVL | 0.573 nM | 0.713 nM | 3.79 nM | 7.72 nM
9 | Antibody Zibebe (antibody, V domains shown) VH: QVQLVQSGAEVKKPGSSVKVSCKASGYKFTSSYINWVRQAPGQGLEWMGTINAVSGSTSYAQKFQGRVTITADESTSTAYMELSSLRSEDTAVYYCARGGWFDYWGQGTLVTVSS VL: QSALTQPRSVSGSPGQSVTISCTGTSSDVGSYNYVNWYQQHPGKAPKLMIYGVSKRESGVPDRFSGSKSGNTASLTISGLQAEDEADYYCGTFAGGKYYGVFGGGTKLTVL | 0.542 nM | 1.46 nM | 7.83 nM | 19 nM
10 | Antibody Nonnafürzla (antibody, V domains shown) VH: QVQLVQSGAEVKKPGSSVKVSCKASGYTFTSSYINWVRQAPGQGLEWMGTINAVSGSTSYAQKFQGRVTITADTSTSTAYMELSSLRSEDTAVYYCARGGWFDYWGQGTLVTVSS VL: QSALTQPRSVSGSPGQSVTISCTGTSSDVGSYNYVNWYQQHPGKAPKLMIYGVSKRDSGVPDRFSGSKSGNTASLTISGLQAEDEADYYCGTFAGGKYYGVFGGGTKLTVL | 0.505 nM | 1.32 nM | 3.81 nM | 27.3 nM
11 | Antibody Rauchfloisch (antibody, V domains shown) VH: QVQLVQSGAEVKKPGSSVKVSCKASGYTFTSSYINWVRQAPGQGLEWMGTINAVSGSTSYAQKFQGRVTITADTSTSTAYMELSSLRSEDTAVYYCARGGWFDYWGQGTLVTVSS VL: QSALTQPRSVSGSPGQSVTISCTGTSSDVGSRNYVNWYQQHPGKAPKLMIYGVSKRESGVPDRFSGSKSGNTASLTISGLQAEDEADYYCGTFAGGDYYGVFGGGTKLTVL | 0.668 nM | 1.31 nM | 5.11 nM | 18.2 nM
12 | Antibody Oierspätzla (antibody, V domains shown) VH: QVQLVQSGAEVKKPGSSVKVSCKASGYTFTSSYINWVRQAPGQGLEWMGTINPVSGSTSYAQKFQGRVTITADTSTSTAYMELSSLRSEDTAVYYCARGGWFDYWGQGTLVTVSS VL: QSALTQPRSVSGSPGQSVTISCTGTSSDVGSYNYVNWYQQHPGKAPKLMIYGVSKRESGVPDRFSGSKSGNTASLTISGLQAEDEADYYCGTFAGGAYYGVFGGGTKLTVL | 0.361 nM | 0.96 nM | 3.06 nM | 16.8 nM

These binders were tested against T1, human ActRIIB (assay: MSD-SET).

Row | Kd | Binder
13 | 0.003 nM | Ofaschlupfer, Human IgG1-PALALA-YTE (antibody, V domains shown, human IgG1 with PA-LALA (L234A/L235A/P329A) and YTE (M252Y/S254T/T256E), EU numbering) VH: QVQLVQSGAEVKKPGSSVKVSCKASGYTFTSSYINWVRQAPGQGLEWMGTINAVSGSTSYAQKFQGRVTITADTSTSTAYMELSSLRSEDTAVYYCARGGWFDYWGQGTLVTVSS VL: QSALTQPRSVSGSPGQSVTISCTGTSSDVGSKNYVNWYQQHPGKAPKLMIYGVSKRESGVPDRFSGSKSGNTASLTISGLQAEDEADYYCGTFAGGKYYGVFGGGTKLTVL
